This experiment addresses T1, CCR5 on CD4+ T cells of a Mauritian cynomolgus macaque (Mauritian cynomolgus macaque, UniProt P61814 1-352).
T1 construct: also called cynomolgus macaque CCR5
The experiment is described as follows: in vivo CCR5 receptor occupancy on CD4+ T cells after AAV9-huLeron, flow cytometry; also near full CCR5 RO in mesenteric lymph nodes and spleen. How it is done: The ability of the leronlimab-delivering AAV to transduce myocytes, trigger them to produce leronlimab, and subsequently contain CCR5-tropic retroviral replication was tested. An AAV9 encoding human Fc leronlimab (AAV9-huLeron) was administered at 2×10¹² AAV genomes/kg of to a Mauritian cynomolgus macaque (MCM) chronically infected with the CCR5-tropic virus SHIVSF162P3. […] Leronlimab was detectable in plasma at week 3 after administration of leronlimab-AAV following achievement of full CCR5 receptor occupancy in peripheral blood (FIGS. 2A and 2C). Leronlimab persisted in the plasma for one year post leronlimab-AAV administration (FIG. 2A) without appearance of any ADA (FIG. 2B). Following leronlimab-AAV administration and full CCR5 RO on peripheral blood CD4+ T cells, plasma viral loads fell to undetectable levels. Plasma viremia “blips” that coincided with transient dips in CCR5 RO and plasma leronlimab levels were observed. Finally, CD4+ T cells from mesenteric lymph nodes (LN) and spleen maintained near full CCR5 RO (FIG. 2D). Cell-associated SHIV DNA (FIG. 2E) and RNA (FIG. 2F) decreased in blood and spleen, with minimal decreases in mesenteric LN.
For orientation: In flow cytometry, cells or beads pass a laser one at a time.

B1: human Fc leronlimab (expressed in vivo from AAV9-huLeron) (antibody, V domains shown)
VH: EVQLVESGGGLVKPGGSLRLSCAASGYTFSNYWIGWVRQAPGKGLEWIGDIYPGGNYIRNNEKFKDKTTLSADTSKNTAYLQMNSLKTEDTAVYYCGSSFGSNYVFAWFTYWGQGTLVTVSS
VL: DIVMTQSPLSLPVTPGEPASISCRSSQRLLSSYGHTYLHWYLQKPGQSPQLLIYEVSNRFSGVPDRFSGSGSGTDFTLKISRVEAEDVGVYYCSQSTHVPLTFGQGTKVEIK
notes: also called PRO 140; PRO140
As to B1, the binding result is given as “binds”.

(Values after patent US20240392014A1 (OREGON HEALTH AND SCIENCE UNIVERSITY, published 2024).)
